PMC3783652 (ACS chemical biology, 2013)
Each block holds one binder with its values, some of them ahead of it.

Columns and labels:
[1] = target: wild type CXCL12 (stromal cell-derived factor-1/SDF-1) (UniProt P48061 22-93); assay: NMR titration
[2] = target: CXCL12_(1), constitutively monomeric CXCL12 variant (L55C/I58C) (UniProt P48061 22-93, L55C | I58C); assay: NMR titration

B1: 4ISIsYTSD10, sTyr7 sulfopeptide of CXCR4 (peptide)
peptide: ISIYTSD
HELM: PEPTIDE1{[ac].I.S.I.[O=C([C@H](Cc1ccc(OS(=O)(=O)O)cc1)N[*:1])[*:2]].T.S.D.[am]}$$$$V2.0
SMILES: CC[C@H](C)[C@H](NC(C)=O)C(=O)N[C@@H](CO)C(=O)N[C@H](C(=O)N[C@@H](Cc1ccc(OS(=O)(=O)O)cc1)C(=O)N[C@H](C(=O)N[C@@H](CO)C(=O)N[C@@H](CC(=O)O)C(N)=O)[C@@H](C)O)[C@@H](C)CC
Kd [1]: 4300 µM
Kd [2]: 6100 µM

Binder: Ac-ISIYTSD-NH2 [4ISIYTSD10, unsulfated Tyr7 peptide of CXCR4]
Kd [1]: 1900 µM
Kd [2]: 1100 µM

Binder: Ac-SGDYDSM-NH2 [18SGDYDSM24, unsulfated Tyr21 peptide of CXCR4]
Kd [1]: 2700 µM
Kd [2]: 1500 µM

Binder: Ac-SDNYTEE-NH2 [9SDNYTEE15, unsulfated Tyr12 peptide of CXCR4]
Kd [1]: 2100 µM
Kd [2]: 2700 µM

Stronger by Kd [1], values ahead:

Kd [1]: 1800 µM
Kd [2]: 1600 µM
B2: 18SGDsYDSM24, sTyr21 sulfopeptide of CXCR4 (peptide)
peptide: SGDYDSM
HELM: PEPTIDE1{[ac].S.G.D.[O=C([C@H](Cc1ccc(OS(=O)(=O)O)cc1)N[*:1])[*:2]].D.S.M.[am]}$$$$V2.0
SMILES: CSCC[C@H](NC(=O)[C@H](CO)NC(=O)[C@H](CC(=O)O)NC(=O)[C@H](Cc1ccc(OS(=O)(=O)O)cc1)NC(=O)[C@H](CC(=O)O)NC(=O)CNC(=O)[C@H](CO)NC(C)=O)C(N)=O

Kd [1]: 1000 µM
Kd [2]: 1800 µM
B3: 9SDNsYTEE15, sTyr12 sulfopeptide of CXCR4 (peptide)
peptide: SDNYTEE
HELM: PEPTIDE1{[ac].S.D.N.[O=C([C@H](Cc1ccc(OS(=O)(=O)O)cc1)N[*:1])[*:2]].T.E.E.[am]}$$$$V2.0
SMILES: CC(=O)N[C@@H](CO)C(=O)N[C@@H](CC(=O)O)C(=O)N[C@@H](CC(N)=O)C(=O)N[C@@H](Cc1ccc(OS(=O)(=O)O)cc1)C(=O)N[C@H](C(=O)N[C@@H](CCC(=O)O)C(=O)N[C@@H](CCC(=O)O)C(N)=O)[C@@H](C)O
